16 substances from US20180223285 can be followed below.

One series concerns the target human C5 (Homo sapiens) (UniProt P01031). The experiment in a line: cell_activity. The note with it: maximal 2'-OMe purine and 2'-F pyrimidine substitution; complement-dependent sheep erythrocyte hemolysis in human serum; positive control.
A further series concerns the target T1, human C5a (Homo sapiens) (UniProt P01031).
T1 sequence: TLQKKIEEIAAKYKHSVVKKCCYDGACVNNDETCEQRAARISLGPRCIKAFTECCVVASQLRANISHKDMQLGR
The series is described as follows: SPR. The note with it: L-RNA.

A further series has as its target T2, mouse C5a (Mus musculus) (UniProt P06684).
T2 sequence: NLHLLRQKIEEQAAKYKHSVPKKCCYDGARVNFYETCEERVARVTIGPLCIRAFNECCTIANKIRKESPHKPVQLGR
The series is described as follows: SPR. The note with it: L-RNA, Biacore, HBS-EP, 37 C.

Series [1] has as its target T3, human desArg-C5a (Homo sapiens) (UniProt P01031).
T3 sequence: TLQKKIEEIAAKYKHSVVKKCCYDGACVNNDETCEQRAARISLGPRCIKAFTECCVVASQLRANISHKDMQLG
The series is described as follows: SPR. The following applies: L-RNA, 5' 40 kDa PEG, Biacore, HBS-EP, 37 C.

The target in series [2] is T4, mouse desArg-C5a (Mus musculus) (UniProt P06684).
T4 sequence: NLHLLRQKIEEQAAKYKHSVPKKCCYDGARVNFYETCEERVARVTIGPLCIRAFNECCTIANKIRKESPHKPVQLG
The series is described as follows: SPR. The following applies: L-RNA; L-2'-deoxy dU7,dU28,dC38; 5' 40 kDa PEG; Biacore, HBS-EP, 37 C.

The mark [3] stands for this setting: L-2'-deoxy dU5,dG12,dA13,dU26,dU28,dC36, terminal stretch truncated to one nucleotide, reduced activity, exact value in figure.

Turning to C5C6 aptamer (Biesecker et al. 1999), the IC50 in the series with human C5 (Homo sapiens) is 1000 nM.

Regarding “GAUGUGGUGGUGAAGGGUUGUUGGGUGUCGACGCACAGC [NOX-D19001-6xDNA-024]”, the Kd in the series with human C5a (Homo sapiens) (setting [3]) is less than 10 nM.

In the series with human C5a (Homo sapiens) (setting [3]), “GAUGUGGUGGUGAAGGGUUGUUGGGUGUCGACGCACAGGC [NOX-D19001-6xDNA-010]” displayed a Kd of less than 10 nM. On the same count and under the same terms, to “GAUGUGGUGGUGAAGGGUUGUUGGGUGUCGACGCACGC [NOX-D19001-6xDNA-029]” belongs less than 10 nM. Turning to “GCCUGAUGUGGUGGUGAAGGGUUGUUGGGUGUCGACGCACAGGC [NOX-D19001 (274-C8-002-G14)]”, the Kd was 1.38 nM with human C5a (Homo sapiens) (Biacore, HBS-EP, 37 C) and 0.3 nM in the series with mouse C5a (Mus musculus).

In turn, “GCCUGAUGUGGUGGUGAAGGGUUGUUGGGUGUCGACGCACAGGC [NOX-D19001-6xDNA (D09-16-17-30-32-40)]” displayed a Kd with human C5a (Homo sapiens) (L-2'-deoxy dU9,dG16,dA17,dU30,dU32,dC40, Biacore, HBS-EP, 37 C) of 0.361 nM. Substance “GCCUGAUGUGGUGGUGAAGGGUUGUUGGGUGUCGACGCACAGGC [NOX-D19001-D09]” came in with a Kd with human C5a (Homo sapiens) (L-2'-deoxy dU9, Biacore, HBS-EP, 37 C) of 0.709 nM. Regarding “GCGAUGUGGUGGUGAAGGGUUGUUGGGUGUCGACGCAC [NOX-D19001-6xDNA-032]”, the equilibrium dissociation constant (Kd) in the series with human C5a (Homo sapiens) (L-2'-deoxy dU7,dG14,dA15,dU28,dU30,dC38, terminal stretch truncated to one nucleotide, reduced activity, exact value in figure) was less than 10 nM.

As to “GCGAUGUGGUGGUGAAGGGUUGUUGGGUGUCGACGCACGC [NOX-D20 (NOX-D19001-6xDNA-020-5'40kDa-PEG)]”, the Kd in the series with human C5a (Homo sapiens) (L-2'-deoxy dU7,dG14,dA15,dU28,dU30,dC38, 5' 40 kDa PEG, Biacore, HBS-EP, 37 C) was found to be 0.299 nM; in series [1] (L-2'-deoxy dU7,dG14,dA15,dU28,dU30,dC38), 0.316 nM; with mouse C5a (Mus musculus) (L-2'-deoxy dU7,dG14,dA15,dU28,dU30,dC38, 5' 40 kDa PEG), 0.019 nM. Regarding “GCGAUGUGGUGGUGAAGGGUUGUUGGGUGUCGACGCACGC [NOX-D21 (NOX-D19001-2dU-1dC-020-5'40kDa-PEG)]”, the Kd with human C5a (Homo sapiens) (L-2'-deoxy dU7,dU28,dC38, 5' 40 kDa PEG, Biacore, HBS-EP, 37 C) worked out at 0.815 nM; in series [1] (L-2'-deoxy dU7,dU28,dC38) it was 0.854 nM; with mouse C5a (Mus musculus) (L-2'-deoxy dU7,dU28,dC38, 5' 40 kDa PEG) it was 0.029 nM; in series [2], 0.028 nM. In the series with human C5a (Homo sapiens) (L-2'-deoxy dU7,dU28, stated as improved by more than factor 10 vs 11.3 nM of NOX-D19001-020, exact value in figure), “GCGAUGUGGUGGUGAAGGGUUGUUGGGUGUCGACGCACGC [NOX-D19001-2xDNA-020]” yielded a Kd of less than 1.13 nM. In the series with human C5a (Homo sapiens) (L-2'-deoxy dU7,dU28,dU30,dC38, stated as improved by more than factor 10 vs 11.3 nM of NOX-D19001-020, exact value in figure), “GCGAUGUGGUGGUGAAGGGUUGUUGGGUGUCGACGCACGC [NOX-D19001-3dU-1dC-020]” came in with a Kd of less than 1.13 nM. On to “GCGAUGUGGUGGUGAAGGGUUGUUGGGUGUCGACGCACGC [NOX-D19001-3xDNA-020]”, for which the Kd in the series with human C5a (Homo sapiens) (L-2'-deoxy dU7,dU28,dU30, stated as improved by more than factor 10 vs 11.3 nM of NOX-D19001-020, exact value in figure) was less than 1.13 nM. In the case of “GCGAUGUGGUGGUGAAGGGUUGUUGGGUGUCGACGCACGC [NOX-D19001-020]”, the Kd with human C5a (Homo sapiens) (Biacore, HBS-EP, 37 C) was 11.3 nM. Consider “GCGAUGUGGUGGUGAAGGGUUGUUGGGUGUCGACGCACGC [NOX-D20001 (NOX-D19001-6xDNA-020)]”, for which the Kd in the series with human C5a (Homo sapiens) (L-2'-deoxy dU7,dG14,dA15,dU28,dU30,dC38, Biacore, HBS-EP, 37 C) was found to be 0.3 nM. In the series with human C5a (Homo sapiens) (L-2'-deoxy dU7,dU28,dC38, stated as improved by more than factor 10 vs 11.3 nM of NOX-D19001-020, exact value in figure), “GCGAUGUGGUGGUGAAGGGUUGUUGGGUGUCGACGCACGC [NOX-D21001 (NOX-D19001-2dU-1dC-020)]” returned a Kd of less than 1.13 nM.
